In paper PMC7817217:

Target: bACE2-Rm fused with eGFP, expressed on the surface of HEK293T cells (Rhinolophus macrotis)
Test: flow cytometry on cells

Substance: SARS-CoV-2 spike protein receptor binding domain (RBD) (from UniProt P0DTC2 319-541) (domain or fragment)
- percent of cells stained positive: 34.5%
